Tests used:
Conditions in all cases: tags: N-term SV40 NLS, XTEN linker + C-term nucleoplasmin NLS
Nuclease H T783R = target: T1, Nuclease H T783R (synthetic construct, T783R); assay: cell_activity; HEK293T; PAM CAC
T1 chain: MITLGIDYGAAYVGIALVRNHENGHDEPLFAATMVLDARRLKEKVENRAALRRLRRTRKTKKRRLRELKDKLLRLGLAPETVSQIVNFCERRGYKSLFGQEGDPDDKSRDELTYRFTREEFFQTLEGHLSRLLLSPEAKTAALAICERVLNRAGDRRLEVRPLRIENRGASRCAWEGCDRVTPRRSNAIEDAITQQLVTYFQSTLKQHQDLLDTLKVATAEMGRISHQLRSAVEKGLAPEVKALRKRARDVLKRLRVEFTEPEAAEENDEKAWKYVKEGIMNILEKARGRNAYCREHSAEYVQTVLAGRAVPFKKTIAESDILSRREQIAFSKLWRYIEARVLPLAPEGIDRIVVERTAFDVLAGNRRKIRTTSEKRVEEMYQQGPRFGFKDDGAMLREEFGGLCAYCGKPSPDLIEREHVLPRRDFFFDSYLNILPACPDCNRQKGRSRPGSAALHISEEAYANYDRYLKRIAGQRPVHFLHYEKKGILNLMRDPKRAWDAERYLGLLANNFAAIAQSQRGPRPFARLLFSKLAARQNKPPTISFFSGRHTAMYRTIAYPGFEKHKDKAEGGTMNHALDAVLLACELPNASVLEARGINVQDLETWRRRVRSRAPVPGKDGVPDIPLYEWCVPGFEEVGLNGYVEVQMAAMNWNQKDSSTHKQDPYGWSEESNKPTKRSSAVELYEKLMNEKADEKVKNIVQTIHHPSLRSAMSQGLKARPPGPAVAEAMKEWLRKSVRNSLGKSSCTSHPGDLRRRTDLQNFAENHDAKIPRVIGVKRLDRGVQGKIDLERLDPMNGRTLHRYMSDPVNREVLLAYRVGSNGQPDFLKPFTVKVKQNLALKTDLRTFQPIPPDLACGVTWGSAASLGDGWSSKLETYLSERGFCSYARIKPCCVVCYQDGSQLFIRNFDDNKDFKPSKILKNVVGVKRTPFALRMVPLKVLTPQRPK
Experimental: (§1) HEK293T cells were transfected with plasmids expressing the Nuclease H polypeptides and the gRNAs provided herein following the methods provided in Example 1 above. Gene editing efficiencies were determined by NGS following the methods also provided in Example 1. The NGS results were analyzed also following the methods provided in Example 1 above.
Indel ratios, referring to the percentage of NGS reads comprising indels, were calculated for the reference and for each variant. The indel ratios used for fold change calculations were the average of two technical replicates. To then calculate fold change in indel ratios, the indel ratio for each variant was divided by the indel ratio for the reference. […] Numbering is relative to the reference nuclease of SEQ ID NO: 64 (i.e., without an NLS).

Nuclease H [1] = target: T2, Nuclease H (synthetic construct); assay: cell_activity; HEK293T; PAM CAC 3'
T2 chain: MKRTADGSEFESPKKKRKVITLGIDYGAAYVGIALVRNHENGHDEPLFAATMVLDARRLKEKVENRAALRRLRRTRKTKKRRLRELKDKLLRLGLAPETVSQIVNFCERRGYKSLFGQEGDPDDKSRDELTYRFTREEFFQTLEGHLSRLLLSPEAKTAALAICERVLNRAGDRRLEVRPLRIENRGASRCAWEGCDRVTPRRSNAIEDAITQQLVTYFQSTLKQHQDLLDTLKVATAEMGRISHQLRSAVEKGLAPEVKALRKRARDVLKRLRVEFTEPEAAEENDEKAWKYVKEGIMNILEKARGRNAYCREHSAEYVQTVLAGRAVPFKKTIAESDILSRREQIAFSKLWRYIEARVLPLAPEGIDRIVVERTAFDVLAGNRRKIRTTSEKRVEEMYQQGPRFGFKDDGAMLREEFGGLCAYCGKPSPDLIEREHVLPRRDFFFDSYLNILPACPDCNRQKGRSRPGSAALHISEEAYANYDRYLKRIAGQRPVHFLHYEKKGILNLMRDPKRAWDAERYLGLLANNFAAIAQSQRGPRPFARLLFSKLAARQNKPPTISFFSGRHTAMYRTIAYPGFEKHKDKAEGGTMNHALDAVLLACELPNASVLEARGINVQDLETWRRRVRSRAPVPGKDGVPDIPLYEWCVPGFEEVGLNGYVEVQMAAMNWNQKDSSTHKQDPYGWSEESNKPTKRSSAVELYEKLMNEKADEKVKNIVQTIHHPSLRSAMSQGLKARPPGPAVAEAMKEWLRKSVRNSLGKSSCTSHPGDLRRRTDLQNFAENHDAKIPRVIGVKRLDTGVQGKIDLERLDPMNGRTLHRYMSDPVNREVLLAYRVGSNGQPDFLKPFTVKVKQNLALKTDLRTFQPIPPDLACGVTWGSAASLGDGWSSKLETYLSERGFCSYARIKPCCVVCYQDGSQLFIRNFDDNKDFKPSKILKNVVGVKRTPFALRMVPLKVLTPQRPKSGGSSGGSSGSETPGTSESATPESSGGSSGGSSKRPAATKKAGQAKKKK

Nuclease S = target: T3, Nuclease S (synthetic construct); assay: cell_activity; HEK293T; PAM AGCC 3'
T3 chain: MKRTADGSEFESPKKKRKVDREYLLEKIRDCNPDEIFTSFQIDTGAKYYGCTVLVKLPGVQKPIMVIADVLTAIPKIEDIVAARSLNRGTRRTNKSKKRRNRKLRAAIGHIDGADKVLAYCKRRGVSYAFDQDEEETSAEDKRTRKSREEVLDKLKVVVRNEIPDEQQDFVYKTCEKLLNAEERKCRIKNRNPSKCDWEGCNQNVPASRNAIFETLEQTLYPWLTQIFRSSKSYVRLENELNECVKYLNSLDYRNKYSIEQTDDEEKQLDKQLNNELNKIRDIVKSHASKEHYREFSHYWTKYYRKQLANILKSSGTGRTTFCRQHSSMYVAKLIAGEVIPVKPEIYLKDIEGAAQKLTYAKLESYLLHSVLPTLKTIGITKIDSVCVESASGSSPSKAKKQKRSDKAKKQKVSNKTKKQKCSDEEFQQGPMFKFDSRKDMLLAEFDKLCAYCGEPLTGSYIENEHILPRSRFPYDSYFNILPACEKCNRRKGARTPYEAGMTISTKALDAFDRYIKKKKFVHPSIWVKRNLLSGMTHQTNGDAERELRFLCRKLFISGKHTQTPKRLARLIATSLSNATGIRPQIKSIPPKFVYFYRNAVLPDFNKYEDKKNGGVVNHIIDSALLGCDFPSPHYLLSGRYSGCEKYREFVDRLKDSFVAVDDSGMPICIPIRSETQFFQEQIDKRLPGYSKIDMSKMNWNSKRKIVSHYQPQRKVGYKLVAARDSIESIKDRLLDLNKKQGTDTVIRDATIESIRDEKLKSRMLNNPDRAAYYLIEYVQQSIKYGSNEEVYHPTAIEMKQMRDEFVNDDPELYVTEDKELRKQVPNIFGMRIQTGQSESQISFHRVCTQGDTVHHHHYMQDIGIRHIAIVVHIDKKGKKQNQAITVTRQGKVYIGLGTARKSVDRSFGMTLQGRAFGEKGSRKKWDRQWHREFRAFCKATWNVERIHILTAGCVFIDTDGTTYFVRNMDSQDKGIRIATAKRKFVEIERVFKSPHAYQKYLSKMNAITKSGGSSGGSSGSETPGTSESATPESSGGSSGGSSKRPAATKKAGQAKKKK
Experimental: as §1, with “Nuclease S” for “Nuclease H”
Each Nuclease S variant was cloned as described in Example 6. HEK293T cells were further transfected with a plasmid encoding a Nuclease S variant and a plasmid encoding an RNA guide of Table 11, followed by NGS analysis, as described in Example 5. For each target, indel ratios, referring to the percentage of NGS reads comprising indels, were calculated for the reference Nuclease S (SEQ ID NO: 49) and for each Nuclease S variant. The indel ratios shown in Table 13 were calculated as the average of two bioreplicates, each of which contained two technical replicates.

Nuclease H [2] = target: T2, Nuclease H; assay: cell_activity; HEK293T; PAM GAC 3'

B1: H EMX1-T5 RNA guide ; EMX1-T5 target (H) (ssRNA ; dsDNA)
RNA: GAGGCCUGGAGUCAUGGCCCGUUUCAAUCAACCUGAUCUCUCUGCUUGCGCUGCAGGCUUCAUAAGAUCAGUAGGUUGAAAAGAGCAUCCGUCCGACAUGCACUCCGGGAUGGGGCAGUCCCGGCUCUUGCGGUUCCCGAUGCAGUUAUGUGUCCGCGGAACACGGUGUCGGACACGUCGCAAGACAGGAUGUGAGCCCAUUAUCCACAUUAGGAUCAAUGUACGCAUGAGCAGUCCGCAAUGCCGGGGACGCU
DNA 1: GAGGCCTGGAGTCATGGCCC
DNA 2: GGGCCATGACTCCAGGCCTC
Q: How did the “fold change in indel ratio vs reference” value (Nuclease H T783R) turn out when B1 was run?
A: The value was 4.33 fold indel vs reference.

Q: What about the activity (Nuclease H [1]) of the same binder?
A: Its activity is 0.032 indel ratio.

B2: S EMX1-T4 RNA guide ; EMX1-T4 target (S) (ssRNA ; dsDNA)
RNA: AUGACUCCAGGCCUCCCCAAGUUGUAUUCGGAUGGGAGUAAAAGGUUGAGUACACCUGGAAACAAAACGACAUAAAGGUGUUCUCCCAUCUGUGUACAAAGAGCAGAUAUAUGAGUUGAUAAGUAAUAUGUUGCACGUAUGGACUUUGACAGUCUGUACCUCUGCGUGAAAGACAUAUUGCGUUAUUCAUAUAUCUGUGAGUCUGUUCUAAAUUUAAAGGUUUAGGGAA
DNA 1: ATGACTCCAGGCCTCCCCAA
DNA 2: TTGGGGAGGCCTGGAGTCAT
Q: Which activity (Nuclease S) does the source give for B2 here?
A: Its activity is 0.0265 indel ratio.

B3: S VEGFA-T4 RNA guide ; VEGFA-T4 target (S) (ssRNA ; dsDNA)
RNA: CUCUACACAAAUCUCUCCAGGUUGUAUUCGGAUGGGAGUAAAAGGUUGAGUACACCUGGAAACAAAACGACAUAAAGGUGUUCUCCCAUCUGUGUACAAAGAGCAGAUAUAUGAGUUGAUAAGUAAUAUGUUGCACGUAUGGACUUUGACAGUCUGUACCUCUGCGUGAAAGACAUAUUGCGUUAUUCAUAUAUCUGUGAGUCUGUUCUAAAUUUAAAGGUUUAGGGAA
DNA 1: CTCTACACAAATCTCTCCAG
DNA 2: CTGGAGAGATTTGTGTAGAG
Q: For B3, which activity (Nuclease S) is on record?
A: Its activity is 0.0333 indel ratio.

B4: H VEGFA-T6 RNA guide ; VEGFA-T6 target (H) (ssRNA ; dsDNA)
RNA: GACUCUUCAAAUCCUCCCUUGUUUCAAUCAACCUGAUCUCUCUGCUUGCGCUGCAGGCUUCAUAAGAUCAGUAGGUUGAAAAGAGCAUCCGUCCGACAUGCACUCCGGGAUGGGGCAGUCCCGGCUCUUGCGGUUCCCGAUGCAGUUAUGUGUCCGCGGAACACGGUGUCGGACACGUCGCAAGACAGGAUGUGAGCCCAUUAUCCACAUUAGGAUCAAUGUACGCAUGAGCAGUCCGCAAUGCCGGGGACGCU
DNA 1: GACTCTTCAAATCCTCCCTT
DNA 2: AAGGGAGGATTTGAAGAGTC
Q: B4 was tested. Which activity (Nuclease H [2]) did it give?
A: The activity was 0.0378 indel ratio.
